# According to patent publication US20220204633A1 (UNIVERSIT T Z RICH, published 2022):
# B1: human IL-12Fc NHQ (Fc fusion)
# chain: IWELKKDVYVVELDWYPDAPGEMVVLTCDTPEEDGITWTLDQSSEVLGSGKTLTIQVKEFGDAGQYTCHKGGEVLSHSLLLLHKKEDGIWSTDILKDQKEPKNKTFLRCEAKNYSGRFTCWWLTTISTDLTFSVKSSRGSSDPQGVTCGAATLSAERVRGDNKEYEYSVECQEDSACPAAEESLPIEVMVDAVHKLKYENYTSSFFIRDIIKPDPPKNLQLKPLKNSRQVEVSWEYPDTWSTPHSYFSLTFCVQVQGKSKREKKDRVFTDKTSATVICRKNASISVRAQDRYYSSSWSEWASVPCSGGGGSGGGGSGGGGSRNLPVATPDPGMFPCLHHSQNLLRAVSNMLQKARQTLEFYPCTSEEIDHEDITKDKTSTVEACLPLELTKNESCLNSRETSFITNGSCLASRKTSFMMALCLSSIYEDLKMYQVEFKTMNAKLLMDPKRQIFLDQNMLAVIDELMQALNFNSETVPQKSSLEEPDFYKTKIKLCILLHAFRIRAVTIDRVMSYLNASKVDKRVESKYGPPCPPCPAPEFLGGPSVFLFPPKPKDTLMNSRTPEVTCVVVDVSQEDPEVQFNWYVDGVEVHNAKTKPREEQFNSTYRVVSVLTVLHQDWLNGKEYKCKVSNKGLPSSIEKTISKAKGQPREPQVYTLPPSPEEMTKNQVSLTCLVKGFYPSDIAVEWESNGQPENNYKTTPPVLDSDGSFFLYSRLTVDKSRWQEGNVFSCSVMHEALHNQYTQKSLSLSLGK
# notes: also called NHQ variant
# Molecular target: T1, human recombinant biotinylated FcRn (Immunitrack) (human, UniProt P55899 24-297; P61769 21-119, limits assumed, biotinylated (site not stated))
# T1 construct: Immobilized on a ProteOn NLC chip for SPR at pH 6.0; also called human FcRn; human recombinant FcRn
# T1 sequence (P55899 24-297 limits assumed, chain 1 of 2): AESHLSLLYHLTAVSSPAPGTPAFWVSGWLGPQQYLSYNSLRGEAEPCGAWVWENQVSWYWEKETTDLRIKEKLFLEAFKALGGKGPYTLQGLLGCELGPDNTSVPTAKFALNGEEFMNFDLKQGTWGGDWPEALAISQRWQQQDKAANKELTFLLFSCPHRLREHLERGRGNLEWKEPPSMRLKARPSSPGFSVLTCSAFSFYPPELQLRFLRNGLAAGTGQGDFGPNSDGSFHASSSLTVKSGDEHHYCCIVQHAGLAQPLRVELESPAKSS
# T1 sequence (P61769 21-119 limits assumed, chain 2 of 2): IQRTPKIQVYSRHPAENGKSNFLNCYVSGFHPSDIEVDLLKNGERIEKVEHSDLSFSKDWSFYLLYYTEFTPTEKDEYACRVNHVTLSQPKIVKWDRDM
# Test: SPR, human FcRn immobilized, IL-12Fc variants in liquid phase, pH 6.0
binder,measurement,value
B1,fold reduction of affinity against IL-12Fc WT,~8 fold
